T1: DNA ligase IV catalytic domain (lysyl-AMP at K273 in open complex) (human, UniProt P49917 1-620)
T1 sequence: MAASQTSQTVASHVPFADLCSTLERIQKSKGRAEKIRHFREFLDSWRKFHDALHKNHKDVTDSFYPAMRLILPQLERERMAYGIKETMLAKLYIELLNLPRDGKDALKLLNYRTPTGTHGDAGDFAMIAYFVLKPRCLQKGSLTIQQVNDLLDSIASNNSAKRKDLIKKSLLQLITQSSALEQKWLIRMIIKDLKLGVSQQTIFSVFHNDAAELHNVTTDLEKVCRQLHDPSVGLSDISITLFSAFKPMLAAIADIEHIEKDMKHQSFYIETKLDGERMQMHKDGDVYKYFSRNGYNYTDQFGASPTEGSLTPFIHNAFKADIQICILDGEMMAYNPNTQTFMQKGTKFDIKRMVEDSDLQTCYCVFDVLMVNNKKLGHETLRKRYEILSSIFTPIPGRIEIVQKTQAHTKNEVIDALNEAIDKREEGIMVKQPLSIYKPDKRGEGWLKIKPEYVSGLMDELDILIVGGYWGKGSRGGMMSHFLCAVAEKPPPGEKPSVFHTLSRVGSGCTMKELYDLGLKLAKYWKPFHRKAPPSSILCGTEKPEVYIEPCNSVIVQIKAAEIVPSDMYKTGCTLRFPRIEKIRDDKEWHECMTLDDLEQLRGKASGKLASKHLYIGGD

B1: nicked DNA duplex (crystal), 5'-phosphate downstream primer (dsDNA)
DNA 1: GTCCGACGACGCATCAGC
DNA 2: GCTGATGCGTC
DNA 3: GTCGGAC
modifications: upstream primer 3'-dideoxycytidine; downstream primer 5'-phosphate
B2: nicked DNA-adenylate duplex (crystal), 5'-AMP downstream primer (dsDNA)
DNA 1: GTCCGACGACGCATCAGC
DNA 2: GCTGATGCGTC
DNA 3: GTCGGAC
modifications: upstream primer 3'-dideoxycytidine; downstream primer 5'-adenylated (AMP-p, transferred from K273 in the complex)

Assays:
[1] = target: T1, DNA ligase IV catalytic domain …; assay: X-ray crystallography; lysyl-AMP (K273), open conformation, 10 mM MgCl2; 3.25 A; Crystals: protein pre-incubated with 4 mM MgCl2, 1 mM ATP, 1 h on ice, DNA added at 2:1 molar ratio, 1 h on ice; HEPES pH 7.5 (77-79 mM), ~7.8% isopropanol, ~15.5% PEG4000, ~13.6% glycerol, +/- 10 mM MgCl2, room temperature. Mutants only tested by ligation turnover (no binding read-out).; conditions: protein: recombinant; tags: 6xHis-SUMO, removed with Ulp1; nicked duplex, 18 bp, blunt ends; nick between strand 2 (11 nt) and strand 3 (7 nt)
[2] = target: T1, DNA ligase IV catalytic domain …; assay: X-ray crystallography; DNA-adenylate, closed conformation, no metal bound; Crystals: protein pre-incubated with 4 mM MgCl2, 1 mM ATP, 1 h on ice, DNA added at 2:1 molar ratio, 1 h on ice; HEPES pH 7.5 (77-79 mM), ~7.8% isopropanol, ~15.5% PEG4000, ~13.6% glycerol, +/- 10 mM MgCl2, room temperature. Mutants only tested by ligation turnover (no binding read-out).; conditions: protein: recombinant; tags: 6xHis-SUMO, removed with Ulp1; nicked duplex, 18 bp, blunt ends; nick between strand 2 (11 nt) and strand 3 (7 nt)

Binder | binding result [1] | binding result [2]
B1 | binds | 
B2 |  | binds

From paper PMC6035275, “Structures of DNA-bound human ligase IV catalytic core reveal insights into substrate binding and catalysis”
